Results: PMC9684487, “Human antibody recognition and neutralization mode on the NTD and RBD domains of SARS-CoV-2 spike protein” (Scientific Reports, 2022)

Experiments:
Details in all cases: both partners purified
[1] = molecular target: NTD + RBD (aa 13–541) of the SARS-CoV-2 S protein (SARS-CoV-2, wild type (Wuhan-Hu-1 …, UniProt P0DTC2)); experiment: ELISA
[2] = molecular target: T1, S1 (aa 13–685) of the SARS-CoV-2 S protein (SARS-CoV-2, wild type (Wuhan-Hu-1 …, UniProt P0DTC2)); experiment: ELISA
T1 construct: also called subunit 1

[3] = molecular target: T2, recombinant S ECD protein (aa 13–1208) of SARS-CoV-2 (SARS-CoV-2, UniProt P0DTC2); experiment: ELISA
T2 construct: also called S protein; extracellular domain of the S protein

[4] = molecular target: T3, SARS-CoV-2 S protein (ECD, His and Flag Tag) (GenScript) (SARS-CoV-2, wild type (Wuhan-Hu-1 …, UniProt P0DTC2)); experiment: SPR
T3 construct: source: bought: GenScript

B1: 7G7/κ (antibody, V domains shown)
VH: QVQLVESGGGVVQPGRSLRLSCIASGFTFRNYAMYWVRQAPGKGLEWVAVIWYDGSNKFYTDSVKGRFTISRDNSKNSLYLQMNSLRAEDTAVYFCARDQGFGDNYYYYGMDVWGQGTTVTVSS
VL: SYELTQPPSVSVSPGQTARISCSGDALPKEYAYWYQQKPGQAPVLVIYKDSERPSGIPERFSGSSSGTTVTLTISGVQAEDEADYYCQLADSSMHYVVFGGGTKLTVL
notes: also called 7G7-IgG1κ; 7G7/κ (IgG1/Igκ); source: Expi293F, cotransfected with IgH and IgL vectors, purified (HiTrap Protein G)
B1: binds [1]; binds [2]; binds [3].

B2: 7G7/λ (antibody, V domains shown)
VH: B1 VH
VL: B1 VL
notes: also called 7G7 (7G7/λ); IgG1/Igλ2; source: Expi293F, cotransfected with IgH and IgL vectors, purified (HiTrap Protein G)
B2: binds [3].

B3: NIBIC-71 (antibody, V domains shown)
VH: EVQLVESGGGLIQPGGSLRLSCEASGLIVSSNYMTWVRQAPGKGLEWVSVIYSGGSTFYADSVKGRFTVSRDNSKNTLYLQMNNLSPEDTAVYYCARDLGPYGVDVWGQGTTVTVSS
VL: AIQLTQSPSSLSASVGDRVTITCRASQGISSYLAWYQQTPGKAPKLLIYAASTLQSGVPSRFSGSGSGTDFTLTISSLQPEDFATYYCQQLNSYPPFTFGPGTKVDIK
notes: also called recombinant mAb NIBIC-71
In the case of B3, the Kd [4] is reported as 1.33 nM, the koff [4] is reported as 6.35e-05 s⁻¹ and the kon [4] is reported as 47700 M⁻¹ s⁻¹.
